Literature values in publication PMC7825312.

Target: Cys38 (UniProt position 39, SFLKECPSGRI)
Experiment: UV-vis

Recoverin (Bos taurus)
pKa: 7.6
